For the assay, the target named is taxol-stabilized microtubules (control, undigested, with E-hooks) (porcine) (UniProt P02550).

Among the data in paper PMC5732302 are K m(MT) of the microtubule-stimulated ATPase activity of GST–dynein331 (0–2 µM microtubules), with 200 nM She1 and K m(MT) of the microtubule-stimulated ATPase activity of GST–dynein331 (0–2 µM microtubules), without She1 values, retold here.

Sequence of taxol-stabilized microtubules (control, undigested, with E-hooks) (porcine) (P02550 whole entry, chain 1 of 2): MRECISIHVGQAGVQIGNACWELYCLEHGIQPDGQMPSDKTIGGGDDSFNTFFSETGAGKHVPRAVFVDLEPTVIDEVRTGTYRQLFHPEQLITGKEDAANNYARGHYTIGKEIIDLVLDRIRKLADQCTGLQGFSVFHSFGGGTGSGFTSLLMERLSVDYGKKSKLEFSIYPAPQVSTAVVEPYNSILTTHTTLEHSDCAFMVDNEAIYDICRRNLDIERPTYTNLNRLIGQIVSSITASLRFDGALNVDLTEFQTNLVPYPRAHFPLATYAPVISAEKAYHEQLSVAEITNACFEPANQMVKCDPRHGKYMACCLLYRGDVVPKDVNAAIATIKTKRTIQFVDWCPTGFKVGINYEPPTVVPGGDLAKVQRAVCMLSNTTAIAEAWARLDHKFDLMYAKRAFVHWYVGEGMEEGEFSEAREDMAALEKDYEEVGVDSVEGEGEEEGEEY
Sequence of taxol-stabilized microtubules (control, undigested, with E-hooks) (porcine) (chain, as listed by the source, chain 2 of 2): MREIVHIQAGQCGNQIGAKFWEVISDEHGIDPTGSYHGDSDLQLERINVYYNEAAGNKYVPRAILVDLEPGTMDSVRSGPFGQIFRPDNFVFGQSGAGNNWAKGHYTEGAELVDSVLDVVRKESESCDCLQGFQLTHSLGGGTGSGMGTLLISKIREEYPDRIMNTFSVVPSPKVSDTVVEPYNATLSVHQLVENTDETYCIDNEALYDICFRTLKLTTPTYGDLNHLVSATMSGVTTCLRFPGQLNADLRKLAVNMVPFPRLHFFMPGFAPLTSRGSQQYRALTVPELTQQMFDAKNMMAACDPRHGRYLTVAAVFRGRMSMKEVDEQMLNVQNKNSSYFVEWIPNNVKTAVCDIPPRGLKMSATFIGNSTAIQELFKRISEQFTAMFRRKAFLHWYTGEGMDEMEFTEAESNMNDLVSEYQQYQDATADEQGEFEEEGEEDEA

With “GST–dynein331, artificially dimerized (via glutathione S-transferase) dynein motor domain fragment, P36022 1-4092”, the K m(MT) of the microtubule-stimulated ATPase activity of GST–dynein331 (0–2 µM microtubules), with 200 nM She1 was determined as 0.04 µM and the K m(MT) of the microtubule-stimulated ATPase activity of GST–dynein331 (0–2 µM microtubules), without She1 is 0.1 µM.
